Laboratory results taken from paper PMC9482650, “Quantitative fragmentomics allow affinity mapping of interactomes” (Nature Communications, 2022).

Key:
Experiment in all cases: holdup assay
Parameters in all cases: key: below the threshold = too weak to quantify, mostly under pKd 3.1 to 4
DLG2_2, Q15700 = target: DLG2_2, Q15700
GORASP2, Q9H8Y8 = target: GORASP2, Q9H8Y8
GRIP2_3, Q9C0E4 = target: GRIP2_3, Q9C0E4
TJP1_2, Q07157 = target: TJP1_2, Q07157
MPP7, Q5T2T1 = target: T1, MPP7, Q5T2T1
T1 sequence (Q5T2T1 134-230, limits assumed, looked up): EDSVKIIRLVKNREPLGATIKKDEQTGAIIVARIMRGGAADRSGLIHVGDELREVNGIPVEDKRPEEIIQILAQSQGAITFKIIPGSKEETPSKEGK

PARD3_3, Q8TEW0 = target: PARD3_3, Q8TEW0
FRMPD1, Q5SYB0 = target: T2, FRMPD1, Q5SYB0
T2 sequence (Q5SYB0 52-145, limits assumed, looked up): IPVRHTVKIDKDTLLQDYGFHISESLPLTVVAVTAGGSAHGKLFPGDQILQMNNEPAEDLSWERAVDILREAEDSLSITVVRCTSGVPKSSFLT

GOPC, Q9HD26 = target: GOPC, Q9HD26
FRMPD3, Q5JV73 = target: FRMPD3, Q5JV73
DLG3_2, Q92796 = target: T3, DLG3_2, Q92796
T3 sequence (Q92796 221-321, limits assumed, looked up): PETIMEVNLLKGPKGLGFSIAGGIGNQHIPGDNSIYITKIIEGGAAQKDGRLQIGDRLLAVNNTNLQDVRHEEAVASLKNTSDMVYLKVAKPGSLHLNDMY

Inadl_6, Q8NI35 = target: Inadl_6, Q8NI35
DLG4_1, P78352 = target: DLG4_1, P78352
MPDZ_5, O75970 = target: T4, MPDZ_5, O75970
T4 sequence (O75970 695-796, limits assumed, looked up): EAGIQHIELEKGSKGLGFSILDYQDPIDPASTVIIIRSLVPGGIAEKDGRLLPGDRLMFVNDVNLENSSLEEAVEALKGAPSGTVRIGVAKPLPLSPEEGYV

MAGI2_5, Q86UL8 = target: MAGI2_5, Q86UL8
GRIP1_7, Q9Y3R0 = target: T5, GRIP1_7, Q9Y3R0
T5 sequence (Q9Y3R0 999-1096, limits assumed, looked up): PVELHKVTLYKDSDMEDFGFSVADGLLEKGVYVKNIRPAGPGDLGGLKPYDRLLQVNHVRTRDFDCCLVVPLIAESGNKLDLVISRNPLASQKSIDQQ

GRIP1_3, Q9Y3R0 = target: T6, GRIP1_3, Q9Y3R0
T6 sequence (Q9Y3R0 247-346, limits assumed, looked up): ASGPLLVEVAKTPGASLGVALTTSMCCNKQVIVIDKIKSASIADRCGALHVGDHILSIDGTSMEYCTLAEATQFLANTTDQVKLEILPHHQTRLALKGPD

TJP2_1, Q9UDY2 = target: TJP2_1, Q9UDY2
PCLO, Q9Y6V0 = target: T7, PCLO, Q9Y6V0
T7 sequence (Q9Y6V0 4491-4600, limits assumed, looked up): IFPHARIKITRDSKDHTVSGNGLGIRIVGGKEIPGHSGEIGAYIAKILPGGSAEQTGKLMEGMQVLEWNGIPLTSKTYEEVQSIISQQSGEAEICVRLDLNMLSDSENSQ

MAGI1_2, Q96QZ7 = target: MAGI1_2, Q96QZ7
ARHGEF12, Q9NZN5-2 = target: ARHGEF12, Q9NZN5-2
LAP2, Q96RT1 = target: LAP2, Q96RT1
Inadl_9, Q8NI35 = target: Inadl_9, Q8NI35
LRRC7, Q96NW7 = target: T8, LRRC7, Q96NW7
T8 sequence (Q96NW7 1440-1537, limits assumed, looked up): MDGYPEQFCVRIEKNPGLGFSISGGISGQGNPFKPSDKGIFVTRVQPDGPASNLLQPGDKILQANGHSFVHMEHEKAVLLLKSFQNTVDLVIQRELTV

Inadl_5, Q8NI35 = target: Inadl_5, Q8NI35
RAPGEF6, Q8TEU7 = target: T9, RAPGEF6, Q8TEU7
T9 sequence (Q8TEU7 525-625, limits assumed, looked up): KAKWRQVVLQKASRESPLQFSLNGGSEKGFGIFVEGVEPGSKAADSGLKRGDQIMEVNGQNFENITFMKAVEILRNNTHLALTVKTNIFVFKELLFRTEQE

DLG1_2, Q12959 = target: DLG1_2, Q12959
TJP1_3, Q07157 = target: TJP1_3, Q07157
Inadl_4, Q8NI35 = target: Inadl_4, Q8NI35
[1] = plain residues with an end cap or a label only (N-terminal biotin on a linker: ado-ado)
[2] = plain residues with an end cap or a label only (N-terminal biotin on a linker: ttds)
[3] = plain residues with an end cap or a label only (N-terminal biotin on a linker: ahx)

Sequence of LAP2, Q96RT1 (Q96RT1 other isoform, or with tags, fused parts or gaps): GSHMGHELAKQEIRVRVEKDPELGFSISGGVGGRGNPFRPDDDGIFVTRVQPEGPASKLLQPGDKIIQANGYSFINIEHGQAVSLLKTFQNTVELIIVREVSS
Sequence of Inadl_4, Q8NI35 (Q8NI35 547-651): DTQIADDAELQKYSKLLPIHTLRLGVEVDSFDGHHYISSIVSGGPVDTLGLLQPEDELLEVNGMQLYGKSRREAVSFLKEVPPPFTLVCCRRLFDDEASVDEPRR
Sequence of DLG1_2, Q12959 (Q12959 314-412): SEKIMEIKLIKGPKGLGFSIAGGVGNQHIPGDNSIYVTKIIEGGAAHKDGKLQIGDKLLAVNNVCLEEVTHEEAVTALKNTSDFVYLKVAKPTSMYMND
Sequence of TJP1_3, Q07157 (Q07157 416-512): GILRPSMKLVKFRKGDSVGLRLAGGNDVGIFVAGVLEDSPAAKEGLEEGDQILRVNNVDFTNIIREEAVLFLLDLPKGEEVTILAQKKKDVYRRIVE
Sequence of PARD3_3, Q8TEW0 (Q8TEW0 582-685): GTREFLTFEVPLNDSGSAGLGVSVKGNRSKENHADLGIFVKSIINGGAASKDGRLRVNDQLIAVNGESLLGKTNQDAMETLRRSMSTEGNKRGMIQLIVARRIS
Sequence of TJP1_2, Q07157 (Q07157 181-274): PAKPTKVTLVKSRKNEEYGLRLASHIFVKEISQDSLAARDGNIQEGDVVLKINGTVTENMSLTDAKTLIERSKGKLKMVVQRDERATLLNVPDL
Sequence of Inadl_5, Q8NI35 (Q8NI35 673-780): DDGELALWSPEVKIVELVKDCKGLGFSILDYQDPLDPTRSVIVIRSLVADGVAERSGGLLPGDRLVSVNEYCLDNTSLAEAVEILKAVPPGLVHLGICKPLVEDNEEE
Sequence of Inadl_9, Q8NI35 (Q8NI35 1530-1615): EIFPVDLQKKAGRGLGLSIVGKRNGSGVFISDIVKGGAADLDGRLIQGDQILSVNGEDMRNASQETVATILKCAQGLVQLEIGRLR
Sequence of MAGI2_5, Q86UL8 (Q86UL8 915-1017): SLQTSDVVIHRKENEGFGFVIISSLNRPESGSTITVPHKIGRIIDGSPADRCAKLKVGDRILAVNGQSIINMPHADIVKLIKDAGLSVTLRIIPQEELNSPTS
Sequence of DLG2_2, Q15700 (Q15700 189-283): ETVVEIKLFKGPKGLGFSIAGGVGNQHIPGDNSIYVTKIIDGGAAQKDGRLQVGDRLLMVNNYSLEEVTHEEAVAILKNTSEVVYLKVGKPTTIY
Sequence of GRIP2_3, Q9C0E4 (Q9C0E4 238-339): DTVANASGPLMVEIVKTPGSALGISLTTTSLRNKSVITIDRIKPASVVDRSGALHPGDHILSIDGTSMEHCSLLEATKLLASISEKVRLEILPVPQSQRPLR
Sequence of FRMPD3, Q5JV73 (Q5JV73 12-100): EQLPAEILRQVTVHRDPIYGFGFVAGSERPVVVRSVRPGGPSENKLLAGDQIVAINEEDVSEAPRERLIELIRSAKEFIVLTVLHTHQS
Sequence of TJP2_1, Q9UDY2 (Q9UDY2 24-128): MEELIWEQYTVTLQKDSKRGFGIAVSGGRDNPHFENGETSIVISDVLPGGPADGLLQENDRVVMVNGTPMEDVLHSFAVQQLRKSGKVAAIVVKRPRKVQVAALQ
Sequence of MAGI1_2, Q96QZ7 (Q96QZ7 456-580): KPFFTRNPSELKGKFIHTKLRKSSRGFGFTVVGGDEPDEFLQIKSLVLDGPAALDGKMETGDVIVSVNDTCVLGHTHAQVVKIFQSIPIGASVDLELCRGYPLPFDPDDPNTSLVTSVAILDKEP
Sequence of DLG4_1, P78352 (P78352 62-152): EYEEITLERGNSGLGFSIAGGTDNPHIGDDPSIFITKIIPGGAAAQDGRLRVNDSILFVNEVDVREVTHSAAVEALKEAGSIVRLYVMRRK
Sequence of Inadl_6, Q8NI35 (Q8NI35 1058-1167): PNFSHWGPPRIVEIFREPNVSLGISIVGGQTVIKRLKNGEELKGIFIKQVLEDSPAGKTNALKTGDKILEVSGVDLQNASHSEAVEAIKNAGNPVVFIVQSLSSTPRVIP
Sequence of ARHGEF12, Q9NZN5-2 (Q9NZN5 other isoform, or with tags, fused parts or gaps): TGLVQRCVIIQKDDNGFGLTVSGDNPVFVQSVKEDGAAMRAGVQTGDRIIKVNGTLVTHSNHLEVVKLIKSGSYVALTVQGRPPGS

B1: CBY2, Q8NA61 (peptide)
chain: SQDPKKPSRV
- pKd (DLG2_2, Q15700; [1]): below the threshold
- pKd (GORASP2, Q9H8Y8; [1]): below the threshold
- pKd (GRIP2_3, Q9C0E4; [1]): below the threshold
- pKd (TJP1_2, Q07157; [1]): below the threshold
- pKd (MPP7, Q5T2T1; [1]): below the threshold
- pKd (PARD3_3, Q8TEW0; [1]): below the threshold
- pKd (FRMPD1, Q5SYB0; [1]): below the threshold
- pKd (GOPC, Q9HD26; [1]): 3.75
- pKd (FRMPD3, Q5JV73; [1]): below the threshold
- pKd (DLG3_2, Q92796; [1]): below the threshold
- pKd (Inadl_6, Q8NI35; [1]): below the threshold
- pKd (DLG4_1, P78352; [1]): 3.66
- pKd (MPDZ_5, O75970; [1]): below the threshold
- pKd (MAGI2_5, Q86UL8; [1]): below the threshold
- pKd (GRIP1_7, Q9Y3R0; [1]): below the threshold
- pKd (GRIP1_3, Q9Y3R0; [1]): below the threshold
- pKd (TJP2_1, Q9UDY2; [1]): below the threshold
- pKd (PCLO, Q9Y6V0; [1]): below the threshold
- pKd (MAGI1_2, Q96QZ7; [1]): below the threshold
- pKd (ARHGEF12, Q9NZN5-2; [1]): below the threshold
- pKd (LAP2, Q96RT1; [1]): below the threshold
- pKd (Inadl_9, Q8NI35; [1]): 4.08
- pKd (LRRC7, Q96NW7; [1]): below the threshold
- pKd (Inadl_5, Q8NI35; [1]): below the threshold
- pKd (RAPGEF6, Q8TEU7; [1]): below the threshold
- pKd (DLG1_2, Q12959; [1]): below the threshold
- pKd (TJP1_3, Q07157; [1]): below the threshold
- pKd (Inadl_4, Q8NI35; [1]): below the threshold

B2: PODXL, O00592 (peptide)
chain: DLDEEEDTHL
- pKd (DLG2_2, Q15700; [2]): below the threshold
- pKd (GORASP2, Q9H8Y8; [2]): 3.48
- pKd (GRIP2_3, Q9C0E4; [2]): below the threshold
- pKd (TJP1_2, Q07157; [2]): below the threshold
- pKd (MPP7, Q5T2T1; [2]): below the threshold
- pKd (PARD3_3, Q8TEW0; [2]): 4.22
- pKd (FRMPD1, Q5SYB0; [2]): below the threshold
- pKd (GOPC, Q9HD26; [2]): below the threshold
- pKd (FRMPD3, Q5JV73; [2]): 3.6
- pKd (DLG3_2, Q92796; [2]): below the threshold
- pKd (Inadl_6, Q8NI35; [2]): below the threshold
- pKd (DLG4_1, P78352; [2]): below the threshold
- pKd (MPDZ_5, O75970; [2]): below the threshold
- pKd (MAGI2_5, Q86UL8; [2]): below the threshold
- pKd (GRIP1_7, Q9Y3R0; [2]): below the threshold
- pKd (GRIP1_3, Q9Y3R0; [2]): below the threshold
- pKd (TJP2_1, Q9UDY2; [2]): below the threshold
- pKd (PCLO, Q9Y6V0; [2]): below the threshold
- pKd (MAGI1_2, Q96QZ7; [2]): below the threshold
- pKd (ARHGEF12, Q9NZN5-2; [2]): below the threshold
- pKd (LAP2, Q96RT1; [2]): below the threshold
- pKd (Inadl_9, Q8NI35; [2]): below the threshold
- pKd (LRRC7, Q96NW7; [2]): below the threshold
- pKd (Inadl_5, Q8NI35; [2]): below the threshold
- pKd (RAPGEF6, Q8TEU7; [2]): 3.48
- pKd (DLG1_2, Q12959; [2]): below the threshold
- pKd (TJP1_3, Q07157; [2]): below the threshold
- pKd (Inadl_4, Q8NI35; [2]): below the threshold

B3: DGKI, O75912 (peptide)
chain: IGHEDLETAV
- pKd (DLG2_2, Q15700; [1]): 4.71
- pKd (GORASP2, Q9H8Y8; [1]): below the threshold
- pKd (GRIP2_3, Q9C0E4; [1]): below the threshold
- pKd (TJP1_2, Q07157; [1]): below the threshold
- pKd (MPP7, Q5T2T1; [1]): below the threshold
- pKd (PARD3_3, Q8TEW0; [1]): 3.64
- pKd (FRMPD1, Q5SYB0; [1]): below the threshold
- pKd (GOPC, Q9HD26; [1]): 3.58
- pKd (FRMPD3, Q5JV73; [1]): below the threshold
- pKd (DLG3_2, Q92796; [1]): 4.8
- pKd (Inadl_6, Q8NI35; [1]): 4.1
- pKd (DLG4_1, P78352; [1]): 4.61
- pKd (MPDZ_5, O75970; [1]): below the threshold
- pKd (MAGI2_5, Q86UL8; [1]): 4.82
- pKd (GRIP1_7, Q9Y3R0; [1]): below the threshold
- pKd (GRIP1_3, Q9Y3R0; [1]): below the threshold
- pKd (TJP2_1, Q9UDY2; [1]): below the threshold
- pKd (PCLO, Q9Y6V0; [1]): below the threshold
- pKd (MAGI1_2, Q96QZ7; [1]): below the threshold
- pKd (ARHGEF12, Q9NZN5-2; [1]): 3.49
- pKd (LAP2, Q96RT1; [1]): 4.56
- pKd (Inadl_9, Q8NI35; [1]): 3.49
- pKd (LRRC7, Q96NW7; [1]): 3.93
- pKd (Inadl_5, Q8NI35; [1]): below the threshold
- pKd (RAPGEF6, Q8TEU7; [1]): below the threshold
- pKd (DLG1_2, Q12959; [1]): 5.11
- pKd (TJP1_3, Q07157; [1]): below the threshold
- pKd (Inadl_4, Q8NI35; [1]): below the threshold

B4: MTMR1, Q13613 (peptide)
chain: HSATSVHTSV
- pKd (DLG2_2, Q15700; [3]): 3.88
- pKd (GORASP2, Q9H8Y8; [3]): below the threshold
- pKd (GRIP2_3, Q9C0E4; [3]): below the threshold
- pKd (TJP1_2, Q07157; [3]): below the threshold
- pKd (MPP7, Q5T2T1; [3]): below the threshold
- pKd (PARD3_3, Q8TEW0; [3]): 3.73
- pKd (FRMPD1, Q5SYB0; [3]): below the threshold
- pKd (GOPC, Q9HD26; [3]): 3.75
- pKd (FRMPD3, Q5JV73; [3]): below the threshold
- pKd (DLG3_2, Q92796; [3]): 4.72
- pKd (Inadl_6, Q8NI35; [3]): below the threshold
- pKd (DLG4_1, P78352; [3]): 4.21
- pKd (MPDZ_5, O75970; [3]): below the threshold
- pKd (MAGI2_5, Q86UL8; [3]): 4.02
- pKd (GRIP1_7, Q9Y3R0; [3]): below the threshold
- pKd (GRIP1_3, Q9Y3R0; [3]): below the threshold
- pKd (TJP2_1, Q9UDY2; [3]): below the threshold
- pKd (PCLO, Q9Y6V0; [3]): below the threshold
- pKd (MAGI1_2, Q96QZ7; [3]): 3.52
- pKd (ARHGEF12, Q9NZN5-2; [3]): below the threshold
- pKd (LAP2, Q96RT1; [3]): below the threshold
- pKd (Inadl_9, Q8NI35; [3]): 3.57
- pKd (LRRC7, Q96NW7; [3]): below the threshold
- pKd (Inadl_5, Q8NI35; [3]): below the threshold
- pKd (RAPGEF6, Q8TEU7; [3]): below the threshold
- pKd (DLG1_2, Q12959; [3]): 4.9
- pKd (TJP1_3, Q07157; [3]): below the threshold
- pKd (Inadl_4, Q8NI35; [3]): below the threshold
